Reference: patent US20140105902A1 (SAMSUNG ELECTRONICS, published 2014)

Target: c-Met, endogenous in human cell lines (NCI-H441, EBC-1, MKN45, HCC827 ER15, HEK293) (human, UniProt P08581 25-1390)
Test: cell-based or functional assay

Chain of c-Met, endogenous in human cell lines (NCI-H441, EBC-1, MKN45, HCC827 ER15, HEK293) (P08581 25-1390): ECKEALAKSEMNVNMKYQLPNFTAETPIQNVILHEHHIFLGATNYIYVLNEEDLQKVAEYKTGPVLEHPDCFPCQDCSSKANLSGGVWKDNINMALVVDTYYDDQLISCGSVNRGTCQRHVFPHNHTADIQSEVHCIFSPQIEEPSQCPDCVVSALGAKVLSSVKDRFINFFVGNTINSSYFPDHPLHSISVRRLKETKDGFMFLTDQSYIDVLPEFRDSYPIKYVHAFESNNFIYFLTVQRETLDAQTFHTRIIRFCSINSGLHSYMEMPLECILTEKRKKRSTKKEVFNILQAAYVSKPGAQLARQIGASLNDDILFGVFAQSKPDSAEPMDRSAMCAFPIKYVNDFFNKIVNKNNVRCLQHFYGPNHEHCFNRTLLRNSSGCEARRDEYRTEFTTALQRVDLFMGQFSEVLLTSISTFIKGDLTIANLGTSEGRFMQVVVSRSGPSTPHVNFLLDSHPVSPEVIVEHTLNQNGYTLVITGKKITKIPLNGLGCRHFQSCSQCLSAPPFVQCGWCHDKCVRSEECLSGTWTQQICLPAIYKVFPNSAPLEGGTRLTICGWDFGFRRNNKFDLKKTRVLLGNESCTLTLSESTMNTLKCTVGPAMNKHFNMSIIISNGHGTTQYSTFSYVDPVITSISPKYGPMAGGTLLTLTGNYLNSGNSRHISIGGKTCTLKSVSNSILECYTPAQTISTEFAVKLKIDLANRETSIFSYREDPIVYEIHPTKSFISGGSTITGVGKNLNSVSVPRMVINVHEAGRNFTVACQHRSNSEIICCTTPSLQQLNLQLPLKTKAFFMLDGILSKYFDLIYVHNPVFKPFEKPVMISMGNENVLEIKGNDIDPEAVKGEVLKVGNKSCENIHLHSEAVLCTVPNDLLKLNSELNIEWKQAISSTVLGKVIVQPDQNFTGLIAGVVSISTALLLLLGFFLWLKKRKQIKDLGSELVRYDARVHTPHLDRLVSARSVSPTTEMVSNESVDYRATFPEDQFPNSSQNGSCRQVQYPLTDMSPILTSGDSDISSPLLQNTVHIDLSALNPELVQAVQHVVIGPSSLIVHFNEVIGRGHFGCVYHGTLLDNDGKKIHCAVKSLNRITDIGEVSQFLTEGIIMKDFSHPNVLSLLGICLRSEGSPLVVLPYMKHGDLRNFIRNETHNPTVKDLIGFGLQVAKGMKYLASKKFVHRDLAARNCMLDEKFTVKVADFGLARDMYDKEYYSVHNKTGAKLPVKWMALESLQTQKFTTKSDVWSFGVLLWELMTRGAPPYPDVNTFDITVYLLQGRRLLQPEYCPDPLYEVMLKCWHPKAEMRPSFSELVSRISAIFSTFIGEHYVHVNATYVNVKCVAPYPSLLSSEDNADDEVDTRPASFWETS

- total c-Met level by ELISA, Cbl siRNA-transformed EBC-1 cells, 5 ug/ml, 24 h, relative to control IgG: ~30%
B1: anti-c-Met antibody L3-1Y (huAbF46-H4-A1 (U6-HC7)) (antibody, V domains shown)
VH: EVQLVESGGGLVQPGGSLRLSCAASGFTFTDYYMSWVRQAPGKGLEWLGFIRNKANGYTTEYSASVKGRFTISRDNSKNTLYLQMNSLRAEDTAVYYCARDNWFAYWGQGTLVTVSS
VL: DIQMTQSPSSLSASVGDRVTITCKSSQSLLASGNQNNYLAWYQQKPGKAPKMLIIWASTRVSGVPSRFSGSGSGTDFTLTISSLQPEDFATYYCQQSYSRPYTFGQGTKVEIKR
